Assay results published in publication PMC10470521, “Structural basis of a bi-functional malonyl-CoA reductase (MCR) from the photosynthetic green non-sulfur bacterium Roseiflexus castenholzii” (mBio, 2023).
Substitutions are numbered along the chain they refer to. Numbers in names are those of the source.

B1: full-length malonyl-CoA reductase from Roseiflexus castenholzii (RfxMCR) (enzyme, Roseiflexus castenholzii DSM 13941, UniProt A7NN59 1-1229, looked up)
chain: MSTVRRLEGKVALITGGAGNIGEVITRRFLAEGATVVITGRNAEKLAVYRRRLIDEERVAPERVVALRMDGSDIAQVRAGVAQIVHGGTDVPIPLHRIDILVNNAGSAGPRRRLVDIPLEPSEVQPPDSETLAQAVGNLVGITWNLTRAAAPHMPSGSSVINISTIFSRTDYYGRIAYVAPKAALNALSDGLARELGVRGIRVNTIYPGPIESERIYTMFQAMDALKGQPEGDTASGFLRMMRLSRIDQNGEVVKRFPSPVDVANTAVFLASDESAAFTGHAFEVTHGMEVPTESRTTFVSRPGLRSVDATGKVILICAGDQVDDAVALADTLRSCRATVVIGFRDPRALEKASVLLREPRHALAADMYGRPTMTAEARLVRLDPLDPRAAAQTLEQIHAELGAIHHAVVLPGQSRHAPSASLIEVDDQVVERFLHQELVGTIALARELARFWEEYPSGSSMHRVLFVSNPDDQQGNQYSHILRAAVEQLVRVWRHESEYDSVNPAHQQEGQSSAAVWANQLIRYVNNEMANLDFTCAWVAKLLGSDRRIAEINLYLPEEIVGTIGVHNPGFGWAESLFGLHMGKVALITGGSAGIGGQIGRLLALSGAHVMLAARNADQLEQMRASIVREVRDASYPDAESRVAIFPGSDVSDIDGLERLVNHTVRVFGKVDYLINNAGIAGAEEMVIDMPVDAWRHTLRANLISNYALLRRLAPQMKAAGGAYVLNVSSYFGGEKYVAIPYPNRSDYAVSKAGQRAMVESLARFLGPEIQINAIAPGPVEGERLKGAGSRPGLFMRRARLILENKRLNEVFAALLAARHEGATIADLLPDLFANDIQSIANSAAMPAPLRRLATMLRETSDAGGSAQSYLMNATIARKLLNRLENGGYITLHDRRALTVEPPEPFFTEAQIEREAIKVRDGILGMLHLQRMPTEFDVALATVFYLADRNVTGETFHPSGGLRFERTVTEGELFGKPGQQRLERLKGSVVYLIGEHLRQHLVLLARTFLDEIHVARVVLLTETTQAATDLAAELSDYEAAGRFVVIPTCGDIEGGIDRAMAEYGRPGPVISTPFRPLPDRALSARNGDWSSVLTTAEFEELVEQQITHHFRVARKAGLIEGANVTLVTPPTSARSTSEEFALANFVKTTLHALTATAGAESERTVPHVPVNQVDLTRRARSEEPRTPSEEEEELQRFVNAVLLTSAPLPTPLESRYRARIYRGNAITV
notes: malonyl-CoA reductase (MCR) of Roseiflexus castenholzii DSM 13941, gene Rcas_2929, full length Met1-Val1229; Cloned into pET20b at XhoI and NdeI; also called full-length RfxMCR; wild-type RfxMCR
B2: RfxMCR triple mutant W574A E576A F579A (enzyme, Roseiflexus castenholzii DSM 13941)
chain: B1 chain with W574A, E576A, F579A
notes: malonyl-CoA reductase (MCR) of Roseiflexus castenholzii DSM 13941, gene Rcas_2929, with W574A, E576A and F579A; source: E. coli BL21(DE3), purified following the same procedure as the wild-type protein
B3: RfxMCR double mutant W574A E576A (enzyme, Roseiflexus castenholzii DSM 13941)
chain: B1 chain with W574A, E576A
notes: malonyl-CoA reductase (MCR) of Roseiflexus castenholzii DSM 13941, gene Rcas_2929, with W574A and E576A; source: E. coli BL21(DE3), purified following the same procedure as the wild-type protein
B4: RfxMCR single mutant E576A (enzyme, Roseiflexus castenholzii DSM 13941)
chain: B1 chain with E576A
notes: malonyl-CoA reductase (MCR) of Roseiflexus castenholzii DSM 13941, gene Rcas_2929, with E576A; source: E. coli BL21(DE3), purified following the same procedure as the wild-type protein
B5: RfxMCR-N (Met1-Phe572) (domain or fragment, Roseiflexus castenholzii DSM 13941, UniProt A7NN59 1-572, looked up)
chain: MSTVRRLEGKVALITGGAGNIGEVITRRFLAEGATVVITGRNAEKLAVYRRRLIDEERVAPERVVALRMDGSDIAQVRAGVAQIVHGGTDVPIPLHRIDILVNNAGSAGPRRRLVDIPLEPSEVQPPDSETLAQAVGNLVGITWNLTRAAAPHMPSGSSVINISTIFSRTDYYGRIAYVAPKAALNALSDGLARELGVRGIRVNTIYPGPIESERIYTMFQAMDALKGQPEGDTASGFLRMMRLSRIDQNGEVVKRFPSPVDVANTAVFLASDESAAFTGHAFEVTHGMEVPTESRTTFVSRPGLRSVDATGKVILICAGDQVDDAVALADTLRSCRATVVIGFRDPRALEKASVLLREPRHALAADMYGRPTMTAEARLVRLDPLDPRAAAQTLEQIHAELGAIHHAVVLPGQSRHAPSASLIEVDDQVVERFLHQELVGTIALARELARFWEEYPSGSSMHRVLFVSNPDDQQGNQYSHILRAAVEQLVRVWRHESEYDSVNPAHQQEGQSSAAVWANQLIRYVNNEMANLDFTCAWVAKLLGSDRRIAEINLYLPEEIVGTIGVHNPGF
notes: malonyl-CoA reductase (MCR) of Roseiflexus castenholzii DSM 13941, gene Rcas_2929, residues Met1-Phe572 (SDR1 and SDR2 domains); Cloned into pET28a at XhoI and NcoI; also called N-terminal fragment; SDR1-SDR2

Assays:
purified protein = substrate: CC(C)(COP(=O)(O)OP(=O)(O)OC[C@H]1O[C@@H](n2cnc3c(N)ncnc32)[C@H](O)[C@@H]1OP(=O)(O)O)[C@@H](O)C(=O)NCCC(=O)NCCSC(=O)CC(=O)O; test: purified protein; format: biochemical, Roseiflexus castenholzii; conditions: 0.4 mM NADPH, 5 mM MgCl2, 100 mM Tris-HCl pH 8.0, 150 mM NaCl, 50°C, apparent, overall two-step reduction
[1] = molecular target: the molecule itself; test: SEC; gel filtration on HiLoad 16/600 Superdex 200PG; 25 mM Tris-HCl pH 8.0, 150 mM NaCl
[2] = molecular target: the molecule itself; test: crystal structure; RfxMCR-N with NADP+ and MSA; 1 M sodium malonate pH 5.0, 0.1 M sodium acetate pH 4.5, 3% PEG 20,000, 16°C; P6(5)22, one monomer in the asymmetric unit, dimer by crystal packing; 2.0 Å

| Protein | stoichiometry N [1] | also measured |
| --- | --- | --- |
| B1 | 2 | Km (purified protein): 380 ± 80 µM; kcat (purified protein): 5.65 ± 0.57 s⁻¹; kcat/Km (purified protein): 14800 ± 1540 M⁻¹ s⁻¹ |
| B2 | 2 | – |
| B3 | 2 | – |
| B4 | 2 | – |
| B5 | – | stoichiometry N [2]: 2 |
